The values that follow come from patent publication US20240350653A1 (JOINT STOCK COMPANY GENERIUM, published 2024).

In assay [1] the target is Human Insulin Receptor protein fragment (Abcam cat #ab200510) (human) (UniProt P06213). The experiment in a line: ELISA on human insulin receptor fragment, relative to 83-14 mAb. For orientation: In an ELISA, binding on a coated surface is turned into a signal by an enzyme label.
Assay [2] has the same target. Briefly: ELISA on human insulin receptor fragment.
For assay [3], the target named is mouse insulin receptor (mInsR, R&D Systems, Inc., Cat. No. 7544-MR) (mouse) (UniProt P15208). Briefly: ELISA on mouse insulin receptor.

A value given as a limit tells only on which side of the number the result lay.

The term EC50 denotes the concentration that produces a half-maximal response. High values mean a less potent agent, low ones a more potent agent. Take HIR-MAB-IDS (antibody): in assay [1], the Receptor binding from antibody 83-14 mAb, % came to 126%. The concentration for a half-maximal effect (EC50) in assay [2] was 0.0262 µg/mL; in assay [3] it was more than 0.8 µg/mL.
